Paper PMC6287947

B1: 6His-Prp31 (natural protein)
chain: MSLADELLADLEEDNDNELEEEDSEMASAEDESLLAEKLAKPAPNLMDVDVTVQSVRELCKLRDSERLKNTLQQIEHYASRQRTAAEMLGSVESDPEYCLIVDANAIAVDIDNEISIVHKFTKEKYQKRFPELDSLIVGEIEYLLAVKELGNDLDQVKNNEKLQAILTQATIMIVSVTASTTQGTMLTPAEKAKIDEACEMAIELNNFKSKIYEYVESRMTFIAPNLSMIVGASTAAKLLGIAGGLSKLSKMPACNVQVLGAQKKTLSGFSQTQMLPHTGYVYYSQIVQDTAPDLRRKAARLVAAKSVLAARVDACHESVHGEIGLRFKEDVEKKLDKLQEPPPVKFIKPLPKPIEGSKKKRGGKRVRKMKERYALTEFRKQANRMNFGDIEEDAYQGDLGYSRGTIGKTGTGRIRLPQVDEKTKVRISKTLHKNLQKQQVYGGNTTVKRQISGTASSVAFTPLQGLEIVNPQAAERSQTEANAKYFSNTSGFMSVGQRTT

Assays:
taxol-stabilized MTs [1] = assay: co-sedimentation; 6His-Prp31 (10 nM) or 6His-Sf3A2 (13 nM) incubated at RT for 30 min with 2 μM taxol-stabilized MTs (or 2 μM tubulin without Taxol), centrifuged at 100,000 g at RT for 40 min; supernatants and pellets by Western blotting
taxol-stabilized MTs [2] = assay: co-sedimentation; 6His-Prp31 (10 nM) or 6His-Sf3A2 (13 nM) with increasing amounts of taxol-stabilized MTs (0.25–2 μM of tubulin dimers in MT polymers), 25 mM NaCl, RT 30 min, 100,000 g 40 min; SDS-PAGE and Coomassie staining; three independent experiments

Molecule	percent co-sedimented with MTs (taxol-stabilized MTs [1]) [%]	percent co-sedimented with MTs (taxol-stabilized MTs [2]) [%]
6His-Sf3A2 (from UniProt Q9VU15 1-264) (natural protein)	> 80	> 80
B1	> 80	> 80
